Reference: paper PMC8018021 (Proceedings of the National Academy of Sciences of the …, 2021)
“And” between values parts separate entries of the source, which are not always exact repeats. Equal entries are not always repeated.

How the values were obtained:
PGAM–PirC complex = molecular target: T1, PGAM–PirC complex (Synechocystis sp. PCC 6803, UniProt P74507); assay: bio-layer interferometry, inhibition of PirC–PGAM binding
T1 sequence (P74507 1-532): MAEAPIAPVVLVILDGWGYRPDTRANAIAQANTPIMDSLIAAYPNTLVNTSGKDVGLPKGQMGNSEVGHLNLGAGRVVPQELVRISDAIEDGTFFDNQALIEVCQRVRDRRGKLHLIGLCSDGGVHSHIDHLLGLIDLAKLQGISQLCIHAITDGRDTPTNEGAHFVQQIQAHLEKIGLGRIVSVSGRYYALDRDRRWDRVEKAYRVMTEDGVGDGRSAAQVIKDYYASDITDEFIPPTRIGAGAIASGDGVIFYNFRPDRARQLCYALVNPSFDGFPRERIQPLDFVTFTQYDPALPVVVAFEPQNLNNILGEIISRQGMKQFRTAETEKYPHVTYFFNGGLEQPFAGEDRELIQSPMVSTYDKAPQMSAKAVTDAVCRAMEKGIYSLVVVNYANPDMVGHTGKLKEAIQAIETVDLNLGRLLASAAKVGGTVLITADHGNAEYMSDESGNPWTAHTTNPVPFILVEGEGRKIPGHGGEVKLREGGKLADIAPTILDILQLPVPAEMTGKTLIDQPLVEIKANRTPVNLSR
T1 sequence (P77971 53-164 partner): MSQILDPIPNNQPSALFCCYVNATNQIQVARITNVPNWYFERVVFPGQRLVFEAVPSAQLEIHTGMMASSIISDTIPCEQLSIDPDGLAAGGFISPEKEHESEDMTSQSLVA

PII–PirC complex [1] = molecular target: T2, PII–PirC complex (Synechocystis sp. PCC 6803, UniProt Q55247); assay: bio-layer interferometry, enhancement of PirC–PII binding; settings: effector promotes PII–PirC complex
T2 sequence (Q55247 whole entry, one chain of several): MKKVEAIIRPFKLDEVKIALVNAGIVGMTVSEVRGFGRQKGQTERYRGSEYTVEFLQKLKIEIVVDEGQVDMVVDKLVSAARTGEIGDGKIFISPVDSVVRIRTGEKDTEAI

PII–PirC complex [2] = molecular target: T2, PII–PirC complex; assay: bio-layer interferometry, inhibition of PirC–PII binding
[3] = molecular target: T3, PII signalling protein, C-terminal His8-tagged (Synechocystis sp. PCC 6803, UniProt Q55247 1-112); assay: SPR
T3 sequence (Q55247 whole entry): as the sequence (Q55247 whole entry, one chain of several) above

[4] = molecular target: T3, PII signalling protein, C-terminal …; assay: BLI
purified protein = substrate: O=C(O)[C@H](O)COP(=O)(O)O; assay: purified protein; type: biochemical, Synechocystis sp. PCC 6803; settings: no PirC, pH 8.0, 30 °C, 5 mM MgSO4, 0.4 mM MnCl2, 100 mM KCl

In the case of `O=C(O)[C@H](O)COP(=O)(O)O` [3-PGA], the IC50 (PGAM–PirC complex) is reported as 2400 ± 1 µM.

`Nc1ncnc2c1ncn2[C@@H]1O[C@H](COP(=O)(O)OP(=O)(O)O)[C@@H](O)[C@H]1O` [ADP] was tested, and the “bio-layer interferometry, enhancement of PirC-PII binding” value (PII–PirC complex [1]; 2 mM ADP) was “In the presence of ATP or ADP, PirC binding to PII strongly increased”.

For `O=C(O)[C@@H](CO)OP(=O)(O)O` [2-PGA], the IC50 (PGAM–PirC complex) was 970 ± 1 µM.

For `Nc1ncnc2c1ncn2[C@@H]1O[C@H](COP(=O)(O)OP(=O)(O)OP(=O)(O)O)[C@@H](O)[C@H]1O` [ATP], the “bio-layer interferometry, enhancement of PirC-PII binding” value (PII–PirC complex [1]; 2 mM ATP) was “In the presence of ATP or ADP, PirC binding to PII strongly increased”.

In the case of `O=C(O)CCC(=O)C(=O)O` [2-OG], the IC50 (PII–PirC complex [2]) is reported as 123.4 ± 1.1 µM.

B1: PirC (PII-interacting regulator of carbon metabolism; product of sll0944), short 112-amino-acid variant, strep-tagged (natural protein)
chain: T1 sequence (P77971 53-164 partner)
With B1 the “stoichiometry N” value [3] was ~1 PirC monomer per PII trimer and the Kd [4] was 0.0373 µM and 0.0141 µM.

B2: PGAM (Synechocystis sp. PCC 6803 substr. Kazusa) (protein)
chain: T1 sequence (P74507 1-532)
B2 was tested, and the Km (purified protein) was 126.6 ± 6.4 µM, the Vmax (purified protein) was 2.85 µmol/min/mg and the kcat (purified protein) was 2.78 ± 0.03 s⁻¹. It also gave a kcat/Km (purified protein) of 22000 M⁻¹ s⁻¹.
